Laboratory results: patent US20050171016A1

Molecular target: CD36 receptor on human dermal microvascular endothelial cells (HDMEC) (human) (UniProt P16671)
Experiment: cell-based or functional assay

UniProt P16671, sequence (P16671 2-472): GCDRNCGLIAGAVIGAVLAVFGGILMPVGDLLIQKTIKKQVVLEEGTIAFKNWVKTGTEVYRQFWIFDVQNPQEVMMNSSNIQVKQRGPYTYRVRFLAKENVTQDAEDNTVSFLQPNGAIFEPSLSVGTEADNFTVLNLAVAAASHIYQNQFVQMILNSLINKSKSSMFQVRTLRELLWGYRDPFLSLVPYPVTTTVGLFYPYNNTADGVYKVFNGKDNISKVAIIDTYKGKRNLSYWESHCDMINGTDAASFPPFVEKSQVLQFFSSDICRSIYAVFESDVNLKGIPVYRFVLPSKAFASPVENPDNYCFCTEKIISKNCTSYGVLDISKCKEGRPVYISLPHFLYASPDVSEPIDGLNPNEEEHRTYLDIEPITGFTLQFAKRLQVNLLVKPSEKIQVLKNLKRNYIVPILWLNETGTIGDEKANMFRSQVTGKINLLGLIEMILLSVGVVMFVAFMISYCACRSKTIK

inhibition of HDMEC migration (Transwell, 10 ug/ml TSP-1) | inhibition of HDMEC migration in the presence of 10 ug/ml anti-CD36 antibody (clone FA6-152) | inhibition of HDMEC migration (Transwell, TSP-2 conditioned medium) | Substance
54% | 20.8% | – | human thrombospondin-1 (TSP-1) (from UniProt P07996 19-1170)
– | 36.1% | 54.2% | mouse thrombospondin-2 (TSP-2) (from UniProt Q03350 19-1172)
